± gives the uncertainty stated by the source.
Assay: amyloid nucleation score (Sup35N fusion, yeast selection) (log enrichment); library NNK3; higher = more nucleation; inactive = no reads after selection
Procedure, shortened: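 Random libraries were run with three technical output replicates. In each, psi-negative yeast expressing Sup35N fused to peptides of 20 random codons were induced 24 hours with 100 μM copper sulfate and grown 7 days at 30°C on medium lacking adenine and uracil, and input and output plasmid inserts were Illumina-sequenced. The nucleation score is the DiMSum log enrichment of output over input reads, centred on the mode score of non-aggregating sequences, and sequences under 100 input reads were excluded.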

Row | Substance | amyloid nucleation score
1 | NMDSVV | inactive
2 | NMETYLFANVMLFGKPGLLS | 1.01 ± 0.12
3 | NMHRNSSIRDRSVIRTWGMV | inactive
4 | NMIKPSFFIIVVVNTQGFDA | 2.97 ± 0.063
5 | NMIWANEQE | inactive
6 | NMMSGRSQSVINFVYVDFHP | -0.183 ± 0.66
7 | NMRCSIHARGSRHGVRDDTQ | inactive
8 | NMRKLVCDMEIWMIFCAKSN | 0.505 ± 0.28
9 | NMSPGEP | inactive
10 | NMTTGYGAMGFRVVEAWFGC | 1.13 ± 0.11
11 | NMVDCGISLV | inactive
12 | NMVNAIFSAVGLQGFRLFPR | inactive
13 | NMWWNGSETNCESRVFEIET | inactive
14 | NNCRSLY | 0.927 ± 0.21
15 | NNCSQVHKTRD | inactive
16 | NNCVGCPCFSYRS | 3.04 ± 0.072
17 | NNDYADLRWGKSVGKASGWG | inactive
18 | NNFRVNVHIIALVPECYFRL | 2.44 ± 0.077
19 | NNGFGSWGV | inactive
20 | NNLEFQFNWRLEVGFC | inactive
21 | NNNFRKDSS | inactive
22 | NNYVMA | -0.231 ± 1.1
23 | NPDLVFWFKYLWYDGSCQ | inactive
24 | NPETASLNLIKMSMHVSSFV | inactive

Row | Substance | amyloid nucleation score
25 | NPLCTSYNQHPRGYHALTYN | inactive
26 | NPRTRFILNLPVFPSYHEHP | inactive
27 | NQALNILFYLNSSKSCVYPY | 2.47 ± 0.063
28 | NQARHRSSIRRCG | inactive
29 | NQQWIP | inactive
30 | NQVVAVG | inactive
31 | NRCKLNVAGHLCANRTRRFR | inactive
32 | NRCQKSVVYLSLVYYHGIGM | inactive
33 | NRIMGVGLY | inactive
34 | NRIVTVLMFCWLEG | inactive
35 | NRLFTH | inactive
36 | NRMNKSEDGTSKCFESDRWG | inactive
37 | NRRIMVSSFRKVFLSGYGWF | inactive
38 | NRSPLCLKC | inactive
39 | NRVDIRLVKCYWSGDSGGVE | inactive
40 | NRYLFLIGSA | inactive
41 | NSFSLGNSLNPYKAAPRRML | inactive
42 | NSFYNWSSEKKL | inactive
43 | NSLVLTLLNLVGKSLHHFYN | inactive
44 | NSNGCVQGQRFSWPWVGRLA | inactive
45 | NSQRASCSSLTYRSELYGNS | inactive
46 | NSVNMTRCRVYTCFAFCNW | 3.13 ± 0.07
47 | NSVQAWPMIELEQPLKSLVQ | inactive
48 | NSVRYLTWVAFLVCLMAYML | inactive

Row | Substance | amyloid nucleation score
49 | NSYEEWSKWHFSNWSGFSGC | inactive
50 | NSYKVLTYVFCQVRANTIYC | 2.04 ± 0.059
51 | NTCKRYGEVI | 2.2 ± 0.058
52 | NTEGCSSQICRN | inactive
53 | NTIHITTWDELVQLAQCDNL | inactive
54 | NTLDERDCRSKLFAFLLRPS | inactive
55 | NTLGGRLLSLCARGMAIDCL | 0.625 ± 0.35
56 | NTNGMQDLSLCCRCYDTELR | inactive
57 | NTPGYSELIVFGST | inactive
58 | NTPNCYFVLRRVILMRLKLS | inactive
59 | NTRLSRLKIVFPCL | inactive
60 | NTSWLNSWATVITIWPYCAL | 0.724 ± 0.2
61 | NTVTHR | inactive
62 | NTYRMMKGLSPVFMKMLCTP | inactive
63 | NVADALS | inactive
64 | NVALVRTGVIHWSYSVISRV | inactive
65 | NVCAVNFAWSITIWRYNY | inactive
66 | NVDGVVLDCLSSLDSEWGYV | inactive
67 | NVFIHLFTILALGFHL | inactive
68 | NVHVISVFGFYEVTLFNDEV | inactive
69 | NVIMCLRCQY | 2.03 ± 0.1
70 | NVQSSGSRGAR | inactive
71 | NVSYLGEVWYKFRLCVVCSR | 0.159 ± 0.27
72 | NVTDVMRNISMTQLMFYLFA | 1.74 ± 0.062

Row | Substance | amyloid nucleation score
73 | NVYYSPFCWCMPDMFFDSIC | 2.88 ± 0.08
74 | NWAGLHIVKYRLPPHTHLWH | inactive
75 | NWAGRLWLTV | inactive
76 | NWGRKCLFSSWCLLYVDNGT | 0.555 ± 0.2
77 | NWGSYSMDMRSCSGINRRP | inactive
78 | NWKKCYVHYISSADYALRRF | inactive
79 | NWKLYWYNVSCL | 1.65 ± 0.067
80 | NWLLRYLYCRTNFGCCYR | -0.552 ± 0.7
81 | NWMDDWSYVVVSF | -1.13 ± 2.5
82 | NWSYRDGREPHYI | 1.15 ± 0.12
83 | NWTYTAENPG | inactive
84 | NYDFWVQTISECCELEFVM | inactive
85 | NYECNGWVGFVLTVPYGTIW | inactive
86 | NYGTLMYTVL | inactive
87 | NYHRDSDVLTIFVISCPFLR | inactive
88 | NYILSHWELV | inactive
89 | NYNCVVDNLSGKCMNEILGY | 1.09 ± 0.097
90 | NYPIA | inactive
91 | NYRERS | inactive
92 | NYWIHVNVAMRVNYYRFFMF | inactive
93 | NYWSTQLSIFCCKDCATTSA | 2.42 ± 0.063
94 | PAMDII | inactive
95 | PAVQGSKDAASSAERCACQR | inactive
96 | PCECTNHLACDNIPMRYTE | inactive

Row | Substance | amyloid nucleation score
97 | PCICMVIQSGLDEYAYHVQR | inactive
98 | PCMNGVASFWNCGIKIFGSF | inactive
99 | PCPSEFDLSGRYRAAWVRCS | inactive
100 | PCSSLHCYMWYYVGANCHNL | inactive
101 | PDLDYFMIHA | inactive
102 | PDSMNFTPDNHHVRNGYNNF | inactive
103 | PECVVKSTN | inactive
104 | PELRRLTMESYIRNFWSVLS | inactive
105 | PFHGCPTHDCFNAGILALTV | inactive
106 | PFRVLLQGIKDAPSKFIDSG | inactive
107 | PFSFCHLLLSKISIGWRYSL | inactive
108 | PGFLGVPTACPLVSYDAVYP | inactive
109 | PGYSCIRDIQITR | inactive
110 | PGYSHVRLVVSSPPLWTDLA | inactive
111 | PHIGYCMW | inactive
112 | PHRGACMARTLSEVFCRAGS | inactive
113 | PIPTKLLVLKRQSTMHLDRF | inactive
114 | PIRSNVAMIPDD | inactive
115 | PKNLFISRLPL | inactive
116 | PKVRMAPVNERNDFFSVILG | inactive
117 | PLCIHLVVMKSKPATNFSGA | inactive
118 | PLDQCPKVPSLVASLQSESR | inactive
119 | PLEGTALRHMVSMYYLSCWT | inactive

Reference: the supplement of paper PMC12042874
